Data reported in patent US20230176070A1.

T1: PDZ domain of mitochondrial outer membrane protein 25 (mammalian (so in the source)) (UniProt P57105)
T1 sequence (looked up): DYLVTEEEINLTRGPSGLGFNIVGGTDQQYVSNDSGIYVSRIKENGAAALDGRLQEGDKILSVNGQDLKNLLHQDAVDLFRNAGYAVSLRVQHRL

B1: P15 (VHH)
VHH: QVQLVESGGGLVQAGGSLRLSCVASGRPFSSLDMGWFRQRPGKERDVVATINWTGDSTYYLDSVKGRFTISRDNAKNTVFLQMNSLKPEDTAVYYCAARGGGSSVDSEYDVGEFEYDYWGQGTQVTVSS
B2: P14 (VHH)
VHH: QVQLVESGGGLVQAGDSLRLSCTASGRTFSTYTMAWFRQAPGKEREFVAAISWSGTYYADSVKGRFTISRDNAKNTVYLQMNSLKPEDTAVYYCAAVIGSTVDTYSPSDPLEYDYWGQGTQVTVSS
B3: P13 (VHH)
VHH: QVQLVESGGGLVQAGGSLRLSCAASGRTFSTYTMGWFRQAPGKEREFVAAVTWSETLYSDSVKGRFTISRDNAKNTVYLQMNSLKPEDTAVYYCAAVQGSPVDTIVVLTTSEEYDYWGQGTQVTVSS
B4: P6 (VHH)
VHH: HVQLVESGGGLVQAGGSLRLSCAASGRTFSRYTMGWFHQAPGKEREFVAEISGTGGNTGYADSVKGRFTMSRDNAKNTVYLQMNSLKPEDTGVYYCAAVIGSPTDSSDYRSSLDYDYWGQGTQVTVSE
B5: P11 (VHH)
VHH: DVQLVESGGGLVQAGGSLRLSCVASGRTFSTYTMGWFRQAPGKEREFVAHIGWSGSSTYYADSVKGRFTISRDNAKNTMYLQMNSLKPEDTAVYYCAVAIGSPVDSYRHSDPLEYDYWGQGTQVTVSE
B6: P9 (VHH)
VHH: DVQLVESGGGLVQAGGSLRLSCVASVASGRTFGWYDMGWFRQAPGKEREFVAAISWSGGSTYYADSVKGRSTISRDNAKNTVYLQMNSLKPEDTAVYYCAARGGGTSVDSDYDVGEFEYDYWGQGTQVTVSE

target: GST fusion PDZ mutant protein (R46E:K48D) (mammalian (so in the source)) (UniProt P57105); test: indirect ELISA, PDZ R46E:K48D coated

Compared with B1, B2 is higher in Mutant ELISA affinity (LogIC50 (oD450nm)): 1.66 for the first, 3.74 for the second.

Compared with B3, B4 is higher in Mutant ELISA affinity (LogIC50 (oD450nm)): 0.0071 for the first, 4.73 for the second.

Compared with B5, B6 is higher in Mutant ELISA affinity (LogIC50 (oD450nm)): 0 for the first, 2.61 for the second.

target: T1, PDZ domain of mitochondrial outer membrane protein 25 (mammalian (so in the source)); test: indirect ELISA, wild type PDZ coated

B1 and B2 are within 0.2 log units of each other in WT ELISA affinity (LogIC50 (oD450nm)): 4.97 for the first, 5.15 for the second.

Going from B3 to B4, the WT ELISA affinity (LogIC50 (oD450nm)) rises from 4.45 to 5.25.

Compared with B5, B6 is higher in WT ELISA affinity (LogIC50 (oD450nm)): 4.07 for the first, 4.88 for the second.

target: GST fusion PDZ mutant protein (R46E:K48D) (mammalian (so in the source)) (UniProt P57105); test: ELISA, wild type PDZ against PDZ R46E:K48D

Going from B1 to B2, the Affinity fold change falls from 2060 fold to 25.7 fold.

First: B3
Second: B4
The Affinity fold change of the first is higher: 28000 fold for the first, 3.32 fold for the second.

Compared with B5, B6 is lower in Affinity fold change: 11700 fold for the first, 185 fold for the second.
